Test results reported in patent US20240262929A1 (IBIO, published 2024).

Columns and labels:
[1] = target: T1, MUC16 on OVCAR-3 (MUC16high) and SKOV-3 (MUC16low) ovarian cancer cells (UniProt Q8WXI7 1-14507, limits assumed); experiment: flow cytometry, hybridoma supernatant on OVCAR-3 or SKOV-3 cells (FIG. 5B)
T1 construct: whole, on cells; also called MUC16high cells; MUC16low cells
Description: Methods: Hybridoma supernatants were diluted 1:2 into FACS buffer containing OVCAR-3 or SKOV-3 cells and incubated for 30 minutes, then washed once with FACS buffer. 2 ug/mL APC labeled goat anti-mouse Fc secondary antibody diluted in FACS buffer was added to the cells and incubated for 20 minutes, then washed once with FACS buffer. Flow cytometry was performed with 20,000 cells per sample.

[2] = target: T2, 230-mer MUC16 shed domain (UniProt Q8WXI7 14164-14393, biotinylated for the Octet assay); experiment: BLI (Octet), biotinylated 230-mer shed domain on streptavidin biosensor, increasing concentrations of purified antibody
T2 construct: domain: 230-mer MUC16 shed domain
T2 sequence: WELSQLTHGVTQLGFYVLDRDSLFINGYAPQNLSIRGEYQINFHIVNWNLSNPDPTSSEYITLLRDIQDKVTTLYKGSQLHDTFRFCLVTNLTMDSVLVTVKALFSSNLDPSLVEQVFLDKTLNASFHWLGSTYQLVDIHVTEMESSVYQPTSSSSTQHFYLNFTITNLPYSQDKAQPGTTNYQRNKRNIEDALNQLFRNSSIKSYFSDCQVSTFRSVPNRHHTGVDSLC
Description: Methods: Biotinylated 29-mer engineered epitope, glycosylated 58-mer engineered epitope, 230-mer MUC16 shed domain and 288-mer MUC16 extra-cellular domain were immobilized on a Pall Octet 384-Red streptavidin biosensor. Immobilized biosensor tips were dipped into increasing concentration of purified antibody with a 4 minute association followed by a 3 minute dissociation.

[3] = target: T3, engineered epitope 1, 58-mer of MUC16 non-shed domain, glycosylated (N-glycosylated (expressed in mammalian cells, used in glycosylated form); biotinylated for the Octet assay); experiment: ELISA
T3 peptide: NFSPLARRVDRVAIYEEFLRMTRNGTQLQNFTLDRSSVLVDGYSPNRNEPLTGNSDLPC

[4] = target: T4, engineered epitope 2, 29-mer of MUC16 non-shed domain, aglycosylated (aglycosylated (produced synthetically); biotinylated for the Octet assay); experiment: ELISA
T4 peptide: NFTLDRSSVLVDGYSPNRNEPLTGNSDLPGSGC

[5] = target: T5, engineered epitope 1, 58-mer of MUC16 non-shed domain, glycosylated (N-glycosylated (expressed in mammalian cells, used in glycosylated form); biotinylated for the Octet assay); experiment: ELISA dose-response (FIG. 3)
T5 peptide: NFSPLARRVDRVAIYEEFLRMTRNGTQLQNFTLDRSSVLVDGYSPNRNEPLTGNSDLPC

[6] = target: T6, engineered epitope 2, 29-mer of MUC16 non-shed domain, aglycosylated (aglycosylated (produced synthetically); biotinylated for the Octet assay); experiment: ELISA dose-response (FIG. 3)
T6 peptide: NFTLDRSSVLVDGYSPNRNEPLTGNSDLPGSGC

[7] = target: T6, engineered epitope 2, 29-mer of MUC16 …; experiment: binding graphs of FIG. 10 (presumably BLI as for FIG. 5A)
[8] = target: T2, 230-mer MUC16 shed domain; experiment: as above
[9] = target: T1, MUC16 on OVCAR-3 (MUC16high) and SKOV-3 …; experiment: cell binding on OVCAR3 cells (FIG. 9A)
[10] = target: T3, engineered epitope 1, 58-mer of MUC16 …; experiment: ELISA; table columns appear swapped relative to plotted curves
[11] = target: T4, engineered epitope 2, 29-mer of MUC16 …; experiment: as above
[12] = target: T5, engineered epitope 1, 58-mer of MUC16 …; experiment: hybridoma ELISA screen / dose-response (FIG. 8)
[13] = target: T1, MUC16 on OVCAR-3 (MUC16high) and SKOV-3 …; experiment: flow cytometry on MUC16high and MUC16low cells (FIG. 7B)
[14] = target: T2, 230-mer MUC16 shed domain; experiment: binding graphs of FIG. 7A (presumably BLI as for FIG. 5A)
[15] = target: T5, engineered epitope 1, 58-mer of MUC16 …; experiment: ELISA dose-response (FIG. 6)
[16] = target: T6, engineered epitope 2, 29-mer of MUC16 …; experiment: ELISA dose-response (FIG. 6)
[17] = target: T3, engineered epitope 1, 58-mer of MUC16 …; experiment: ELISA
[18] = target: T4, engineered epitope 2, 29-mer of MUC16 …; experiment: ELISA

B1: 1D7 anti-MUC16 clone (antibody, V domains shown)
VH: EVMLVESGGGLVKPGGSLKLSCVASGFTFSSFAMSWVRQTPEKRLEWVAIISSGGGYIYYADSMTGRFTISRDNAKNTLYLQMSSLRSEDTAMYYCARLGGDYDEFYAKDYWGQGTSVTVSS
VL: DIQMTQSSSSFSVSLGDRVTITCKASEDIYNRLAWYQQKPGNAPRLLISGATSLETGVPSRFSGSGSGKDYTLSITSLQTEDVATYYCQQYWSTWTFGGGTKLEIK
notes: Hybridoma antibody from immunized Balb/c mice; Used as purified antibody in BLI and as hybridoma supernatant in flow cytometry; also called clone 1D7
binding result [1]: binds
binding result [2]: no binding
EC50 [3]: 0.51 nM
EC50 [4]: 0.56 nM
binding result [5]: binds
binding result [6]: binds

B2: 21G6 anti-MUC16 clone (antibody, V domains shown)
VH: EVQLEESGPGLVKPSQSLSLTCTVTGYSITSDYAWNWIRQFPGNKLEWMGYISYSGSTIYNPSLKSRISITRDTSKNQFFLHLNSVTTEDTATYYCATLGLDYWGQGTTLTVSS
VL: DFVMTQSPSSLAVSVGEKVTMSCKSSQSLLYSSNQKNYLAWYQQKPGQSPKLLIYWASTRGSGVPDRFTGSGSGTDFTLTISSVKAEDLAVYYCQQYHSYRTFGGGTKLEIK
notes: Hybridoma antibody from immunized Balb/c mice; also called clone 21G6
binding result [7]: binds
binding result [8]: no binding
binding result [9]: binds
EC50 [10]: 0.68 nM
EC50 [11]: 3.4 nM
binding result [12]: binds

B3: 8G4 anti-MUC16 clone (antibody, V domains shown)
VH: QIQLVQSGPELKMPGETVKISCKASGYTFTNFGMNWVKQAPGKALKWMGWINTNTGKPTYFEEFKGRFAFSLETSASTAYLQINNLKNEDTATYFCARRWDRSAWFAYWGQGTLVTVSA
VL: QAVVTQESALTTSPGETVTLTCRSSTGAVTTSNYANWVQEKPDHLFTGLIGGTNDRSPGVPARFSGSLIGDKAALTITGAQTEDEAIYFCALWYSNHWVFGGGTKLTVL
notes: Hybridoma antibody from immunized Balb/c mice; also called clone 8G4
binding result [13]: binds
binding result [14]: no binding
binding result [15]: binds
binding result [16]: binds
EC50 [17]: 0.19 nM
EC50 [18]: 0.23 nM
